Laboratory results from article PMC3568461.

System: CCCC[C@H](NC(=O)c1ccccc1)C(=O)N[C@@H](CCCCN)C(=O)N[C@@H](CCCNC(=N)N)C(=O)N[C@@H](CCCNC(=N)N)C(=O)Nc1ccc2c(C)cc(=O)oc2c1
Assay: In vitro WNV protease assay with tetra-peptide substrate
Type: biochemical, West Nile virus
Settings: other: tetra-peptide substrate; pH 9.5; 25.0 °C

## WNV NS2B-NS3 protease (West Nile virus strain NY-99)
  Km: 24.56 ± 1.43 µM
